Assay results: patent US9273364B2 (Kyoto University, priority 2010, dated 2016)

Legend:
[1] = test system: mouse FGFR2 exon 9 RNA probe (U1 and U2 snRNA binding); experiment: In vitro exon-recognition assay, exon 9 probe; type: biochemical; conditions: HeLa nuclear extract, UV crosslinking
Procedure: (§1) A mutated DNA template of 3′ ss in intron 8 and 5′ ss in intron 9 was prepared from mutated reporter vectors as shown in FIG. 3A. The RNA substrates were labeled with ^32P by in vitro T7 transcription. In vitro splicing reaction and UV cross linking were performed under the conditions described by Sawa [Sawa H, Shimura Y (1992) Genes Dev 6: 244-254.]. To identify the shifted bands by UV cross linking, pre-heated cDNA oligo (10 microgram/mL) for U1 (5′-[…]-3′/SEQ ID NO:38) or U2 (5′-[…]-3′/SEQ ID NO:39) was added to the RNAs after UV cross linking, and the U1 or U2 cDNA oligo/RNAs mixture were digested with 50 U/mL of RNase H at 30 degrees C. for 10 min. In FIG. 5C, highly purified Flag-Fox2 and Flag-ESRP1 were added to RNAs and incubated at room temperature for 5 min before splicing reaction to examine their inhibitory or activating effects on exon recognition of U1 snRNA or U2 snRNA. After these reactions, RNAs were subjected to denaturing PAGE analysis and autoradiography.
(§2) Next, the present inventors tested whether Fox and/or ESRP cause switching from exon 9 to exon 8 through interruption of exon 9 recognition. The present inventors examined this under the in vitro splicing conditions using ^32P-labeled RNA probe of exon 9 with introns containing UGCAUG and ISE/ISS-3 sites (FIG. 10C, top panel) and the exon 8 RNA probe of same stretches. […]

[2] = test system: mouse FGFR2 exon 8 RNA probe (U1 snRNA binding); experiment: In vitro exon-recognition assay, exon 8 probe; type: biochemical; conditions: HeLa nuclear extract, UV crosslinking
Procedure: as §1, §2

Molecule | shifted bands by U1 and U2 snRNA [1] | suppressive or activating effect on exon recognition [2]
Fox2 protein: highly purified recombinant Flag-Fox2 added to RNAs before splicing reaction (protein, UniProt O43251 1-390, looked up, Flag tag) RNA binding protein fox-1 …: MQNEPLTPGYHGFPARDSQGNQEPTTTPDAMVQPFTTIPFPPPPQNGIPTEYGVPHTQDYAGQTGEHNLTLYGSTQAHGEQSSNSPSTQNGSLTTEGGAQTDGQQSQTQSSENSESKSTPKRLHVSNIPFRFRDPDLRQMFGQFGKILDVEIIFNERGSKGFGFVTFENSADADRAREKLHGTVVEGRKIEVNNATARVMTNKKMVTPYANGWKLSPVVGAVYGPELYAASSFQADVSLGNDAAVPLSGRGGINTYIPLISLPLVPGFPYPTAATTAAAFRGAHLRGRGRTVYGAVRAVPPTAIPAYPGVVYQDGFYGADLYGGYAAYRYAQPATATAATAAAAAAAAYSDGYGRVYTADPYHALAPAASYGVGAVASLYRGGYSRFAPY | decreased | not obvious
ESRP1 protein: highly purified recombinant Flag-ESRP1 added to RNAs before splicing reaction (protein, UniProt Q6NXG1 1-681, looked up, Flag tag) Epithelial splicing …: MTASPDYLVVLFGITAGATGAKLGSDEKELILLFWKVVDLANKKVGQLHEVLVRPDQLELTEDCKEETKIDVESLSSASQLDQALRQFNQSVSNELNIGVGTSFCLCTDGQLHVRQILHPEASKKNVLLPECFYSFFDLRKEFKKCCPGSPDIDKLDVATMTEYLNFEKSSSVSRYGASQVEDMGNIILAMISEPYNHRFSDPERVNYKFESGTCSKMELIDDNTVVRARGLPWQSSDQDIARFFKGLNIAKGGAALCLNAQGRRNGEALVRFVSEEHRDLALQRHKHHMGTRYIEVYKATGEDFLKIAGGTSNEVAQFLSKENQVIVRMRGLPFTATAEEVVAFFGQHCPITGGKEGILFVTYPDGRPTGDAFVLFACEEYAQNALRKHKDLLGKRYIELFRSTAAEVQQVLNRFSSAPLIPLPTPPIIPVLPQQFVPPTNVRDCIRLRGLPYAATIEDILDFLGEFATDIRTHGVHMVLNHQGRPSGDAFIQMKSADRAFMAAQKCHKKNMKDRYVEVFQCSAEEMNFVLMGGTLNRNGLSPPPCKLPCLSPPSYTFPAPAAVIPTEAAIYQPSVILNPRALQPSTAYYPAGTQLFMNYTAYYPSPPGSPNSLGYFPTAANLSGVPPQPGTVVRMQGLAYNTGVKEILNFFQGYQYATEDGLIHTNDQARTLPKEWVCI | decreased | not obvious
